Key:
[1] = target: Rab5a(1–212)-Q79L-C19S-C63S (human) (UniProt P20339)
[2] = target: Rab1a(1–204)-Q70L-C26S-C126S (human) (UniProt P62820)
Sequence of Rab1a(1–204)-Q70L-C26S-C126S (human) (P62820 1-204 C26S/Q70L/C126S): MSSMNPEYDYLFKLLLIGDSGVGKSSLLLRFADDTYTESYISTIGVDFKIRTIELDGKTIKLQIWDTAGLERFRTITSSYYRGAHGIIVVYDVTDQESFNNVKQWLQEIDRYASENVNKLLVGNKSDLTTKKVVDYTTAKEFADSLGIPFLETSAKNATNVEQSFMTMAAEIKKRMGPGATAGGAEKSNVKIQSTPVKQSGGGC

Sequence of human VPS34 complex I (VPS34/VPS15/Beclin 1/ATG14L) (Q8NEB9 whole entry): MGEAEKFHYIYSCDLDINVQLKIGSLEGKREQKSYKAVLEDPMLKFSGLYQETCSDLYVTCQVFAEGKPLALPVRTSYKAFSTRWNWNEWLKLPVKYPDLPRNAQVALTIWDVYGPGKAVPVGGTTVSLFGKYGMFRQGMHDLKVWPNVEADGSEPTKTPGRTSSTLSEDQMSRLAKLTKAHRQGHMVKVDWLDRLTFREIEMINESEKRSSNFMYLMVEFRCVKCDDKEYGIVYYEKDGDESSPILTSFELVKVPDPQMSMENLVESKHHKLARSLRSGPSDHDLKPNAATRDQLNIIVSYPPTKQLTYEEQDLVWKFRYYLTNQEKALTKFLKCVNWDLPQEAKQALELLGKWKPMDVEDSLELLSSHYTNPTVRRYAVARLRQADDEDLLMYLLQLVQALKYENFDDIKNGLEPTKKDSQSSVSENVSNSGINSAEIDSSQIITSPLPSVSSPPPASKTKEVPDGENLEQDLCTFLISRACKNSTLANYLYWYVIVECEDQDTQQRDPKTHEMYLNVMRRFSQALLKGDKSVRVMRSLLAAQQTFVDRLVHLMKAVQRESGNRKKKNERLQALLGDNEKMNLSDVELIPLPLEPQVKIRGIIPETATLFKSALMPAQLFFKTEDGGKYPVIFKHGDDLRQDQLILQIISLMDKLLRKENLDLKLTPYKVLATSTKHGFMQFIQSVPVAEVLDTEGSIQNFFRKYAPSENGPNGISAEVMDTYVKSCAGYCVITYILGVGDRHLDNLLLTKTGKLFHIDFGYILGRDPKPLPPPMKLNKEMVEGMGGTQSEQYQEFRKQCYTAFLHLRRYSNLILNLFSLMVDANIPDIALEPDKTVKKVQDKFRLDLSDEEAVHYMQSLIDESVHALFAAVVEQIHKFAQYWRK
Sequence of human VPS34 complex I (VPS34/VPS15/Beclin 1/ATG14L) (Q99570 whole entry): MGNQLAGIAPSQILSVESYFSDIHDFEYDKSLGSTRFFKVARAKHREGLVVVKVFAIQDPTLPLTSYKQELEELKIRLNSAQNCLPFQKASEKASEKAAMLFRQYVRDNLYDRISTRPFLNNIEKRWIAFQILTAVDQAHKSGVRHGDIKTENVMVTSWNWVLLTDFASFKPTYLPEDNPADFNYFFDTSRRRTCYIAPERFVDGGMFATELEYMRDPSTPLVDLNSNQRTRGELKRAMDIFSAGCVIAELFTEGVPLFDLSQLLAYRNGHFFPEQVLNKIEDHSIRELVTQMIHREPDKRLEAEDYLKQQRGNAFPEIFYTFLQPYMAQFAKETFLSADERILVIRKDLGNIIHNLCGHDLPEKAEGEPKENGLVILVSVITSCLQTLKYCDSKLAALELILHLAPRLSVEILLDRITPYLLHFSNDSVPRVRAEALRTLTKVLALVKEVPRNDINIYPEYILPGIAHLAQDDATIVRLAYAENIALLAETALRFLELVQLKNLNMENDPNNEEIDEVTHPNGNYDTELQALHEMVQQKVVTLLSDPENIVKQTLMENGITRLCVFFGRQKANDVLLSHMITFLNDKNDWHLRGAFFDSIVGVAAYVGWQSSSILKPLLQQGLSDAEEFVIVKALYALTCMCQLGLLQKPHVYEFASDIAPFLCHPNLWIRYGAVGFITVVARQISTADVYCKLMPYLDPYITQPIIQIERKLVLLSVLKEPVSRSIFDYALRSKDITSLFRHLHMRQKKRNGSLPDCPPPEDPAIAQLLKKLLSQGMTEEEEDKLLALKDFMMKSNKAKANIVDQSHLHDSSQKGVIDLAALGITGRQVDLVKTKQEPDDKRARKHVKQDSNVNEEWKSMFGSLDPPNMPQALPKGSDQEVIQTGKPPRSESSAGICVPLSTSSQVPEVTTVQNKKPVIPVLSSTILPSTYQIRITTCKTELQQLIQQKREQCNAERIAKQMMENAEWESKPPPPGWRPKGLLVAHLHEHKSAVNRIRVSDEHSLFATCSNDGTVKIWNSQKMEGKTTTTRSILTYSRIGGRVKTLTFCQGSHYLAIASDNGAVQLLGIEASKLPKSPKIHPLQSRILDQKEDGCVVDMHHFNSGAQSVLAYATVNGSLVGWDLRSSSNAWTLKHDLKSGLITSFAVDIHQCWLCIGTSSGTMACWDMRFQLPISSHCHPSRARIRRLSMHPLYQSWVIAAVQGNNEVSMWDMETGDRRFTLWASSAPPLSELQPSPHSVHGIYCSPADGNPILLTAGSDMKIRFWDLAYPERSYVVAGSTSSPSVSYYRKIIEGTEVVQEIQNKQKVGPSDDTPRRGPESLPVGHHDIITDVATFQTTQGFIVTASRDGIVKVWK
Sequence of human VPS34 complex I (VPS34/VPS15/Beclin 1/ATG14L) (Q14457 whole entry): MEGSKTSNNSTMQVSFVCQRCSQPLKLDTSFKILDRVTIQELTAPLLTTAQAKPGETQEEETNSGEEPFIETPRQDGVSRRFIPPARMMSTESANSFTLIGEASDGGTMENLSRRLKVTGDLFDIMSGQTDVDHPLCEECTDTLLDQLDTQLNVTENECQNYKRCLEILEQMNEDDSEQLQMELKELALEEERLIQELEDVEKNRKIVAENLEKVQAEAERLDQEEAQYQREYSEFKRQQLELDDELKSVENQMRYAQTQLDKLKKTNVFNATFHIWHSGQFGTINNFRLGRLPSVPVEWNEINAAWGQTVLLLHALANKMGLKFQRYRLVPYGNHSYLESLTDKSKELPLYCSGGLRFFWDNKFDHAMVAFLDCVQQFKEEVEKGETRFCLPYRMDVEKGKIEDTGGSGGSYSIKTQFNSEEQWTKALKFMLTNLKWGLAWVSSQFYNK
Sequence of human VPS34 complex I (VPS34/VPS15/Beclin 1/ATG14L) (Q6ZNE5 whole entry): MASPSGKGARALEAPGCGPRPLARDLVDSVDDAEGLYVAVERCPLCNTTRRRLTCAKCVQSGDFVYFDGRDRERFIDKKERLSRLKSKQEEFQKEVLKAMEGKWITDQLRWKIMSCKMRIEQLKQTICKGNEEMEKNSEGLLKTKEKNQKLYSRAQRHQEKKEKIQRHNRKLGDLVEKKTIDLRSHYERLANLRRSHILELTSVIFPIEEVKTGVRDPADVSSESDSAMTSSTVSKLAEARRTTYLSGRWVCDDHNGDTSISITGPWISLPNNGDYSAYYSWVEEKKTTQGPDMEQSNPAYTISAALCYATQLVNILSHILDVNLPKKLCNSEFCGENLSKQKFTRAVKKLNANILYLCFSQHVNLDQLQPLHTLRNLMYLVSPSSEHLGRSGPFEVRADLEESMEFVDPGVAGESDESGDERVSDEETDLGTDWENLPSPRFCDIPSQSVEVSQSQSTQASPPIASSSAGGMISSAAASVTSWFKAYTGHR
Sequence of Rab5a(1–212)-Q79L-C19S-C63S (human) (P20339 1-212 C19S/C63S/Q79L): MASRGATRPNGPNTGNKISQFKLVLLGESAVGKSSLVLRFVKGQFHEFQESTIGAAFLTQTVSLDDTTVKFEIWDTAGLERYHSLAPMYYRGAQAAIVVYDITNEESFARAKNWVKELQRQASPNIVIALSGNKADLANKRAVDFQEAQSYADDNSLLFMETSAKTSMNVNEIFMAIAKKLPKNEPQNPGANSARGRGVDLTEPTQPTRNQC

| GUV-based lipid kinase activity, activation of complex II REIE > AAAA by Rab5a–GTP against wild-type complex II [1] | Substance | GUV-based lipid kinase activity of complex I, fold activation by Rab1a–GDP on the GUVs [2] | GUV-based lipid kinase activity of complex I, fold activation by Rab1a–GTP on the GUVs [2] |
| --- | --- | --- | --- |
| 4 fold | complex II REIE > AAAA (VPS34 199-REIE-202 to alanine/VPS15/Beclin 1/UVRAG) (from UniProt Q8NEB9 1-887; Q99570 1-1358; Q14457 1-450; Q9P2Y5 1-699) | – | – |
| – | human VPS34 complex I (VPS34/VPS15/Beclin 1/ATG14L) (from UniProt Q8NEB9 1-887; Q99570 1-1358; Q14457 1-450; Q6ZNE5 1-492) | 3 fold | 11 fold |

Source: PMC7946940
